Patent US7045576B2, “Adjuvants and copolymer compositions” (Cytrx Corporation, priority 1994, dated 2006)

Assays:
ovalbumin (OVA) [1] = experiment: Serum antibody responses to OVA after s.c., oral or nasal delivery; assay type: in vivo, C57BL/6 mice
Description: The utility of the CRL1005 copolymer for use as an oral vaccine adjuvant/delivery system using OVA as the vaccine antigen was evaluated. To ensure immunogenicity of the formulation, C57BLJ6 mice in the positive control group were immunized twice, at ten day intervals, subcutaneously (s.c.) with 25 μg/100 μl dose of OVA+/−1.25% CRL1005 in PBS. Mice immunized orally received 125 μg/500 μl dose of +/−1.25% CRL1005 in bicarbonate buffer, again at 10 day intervals. Mice were also immunized using nasal delivery since dilution or degradation in the stomach was considered to be a possibility. Mice received the same amounts of OVA and CRL1005 used for the s c injections but in a volume of 20 μl. Blood was collected as the source of serum antibodies for testing 14 days after the second immunization.

ovalbumin (OVA) [2] = assay type: in vivo, C57BL/6 mice; conditions: two immunizations with 15 μg of OVA in saline, no adjuvant, 4 weeks
Description: The immune responses induced by experimental subunit vaccine formulations based on a prototype immunogen combined with different adjuvants including CRL1005 were evaluated. Ovalbumin (OVA) was selected as to vaccine immunogen since dose levels of OVA for obtaining optimal and suboptimal immune responses had been established previously. […] OVA was administered at a dose of 15 ug/dose in a total volume of 100 ul. This dose of OVA had been established as non-immunogenic unless combined with an adjuvant.
Ninety mice (C57BL/6) were divided into 9 test and control groups of 10 mice per group. The mice were immunized twice with 28 days between immunizations. Vaccines were administered by needle injection subcutaneously (s.c.) in a total volume of 100 μ/dose.
To evaluate antibody responses, 4 weeks after the second immunization blood was collected via the retro-orbital sinus from 6 mice/group and sera was recovered for serological assay.

EG-7.OVA cells = experiment: OVA-specific cytotoxic T-lymphocyte (CTL) 51Cr-release assay; assay type: cell-based, C57BL/6 mice; conditions: after culture of spleen cells with irradiated EG-7.OVA; two immunizations
From the text: FIG. 12 presents OVA-specific cytotoxic T-lymphocyte (CTL) responses induced in C57BL/6 mice following two immunizations (days 0 and 28) with OVA in saline (left) or formulated in aqueous solution with CRL1005 copolymer adjuvant (right). A standard ^51 chromium (CR)-release CTL assay was used with OVA-transfected EG-7.OVA cells and control EL-4 cells as the targets. Spleen cells were used as the source of precursor CTL, which were induced to mature to functional CTL effector cells, by culture for 6 days with irradiated EG-7.OVA or EL-4 cells. All testing was done in triplicate using a titration of Effector: Target cells, shown as ratios. Data are shown as the Percent Specific Release (Test Release−Spontaneous Release/Maximum Release−Spontaneous Release)×100.
Cytotoxic T-lymphocyte responses (CTL) were measured using a standard in vitro assay and two different cells for stimulator and target cells. The OVA.EG7 cell line was used as both target cells and antigen specific stimulator cells; cells were irradiated when used as stimulator cells. Control target cells were wild-type EL-4 cells, that are not transfected with OVA. Splenic mononuclear cells were used as the effector cells. These cells were assayed after in vitro stimulation to induce precursor CTL maturation to functional CTL effector cells.

[3] = test system: splenic mononuclear cells; assay type: cell-based, C57BL/6 mice; conditions: immunization with OVA alone

ovalbumin (OVA), sequence (P01012 whole entry): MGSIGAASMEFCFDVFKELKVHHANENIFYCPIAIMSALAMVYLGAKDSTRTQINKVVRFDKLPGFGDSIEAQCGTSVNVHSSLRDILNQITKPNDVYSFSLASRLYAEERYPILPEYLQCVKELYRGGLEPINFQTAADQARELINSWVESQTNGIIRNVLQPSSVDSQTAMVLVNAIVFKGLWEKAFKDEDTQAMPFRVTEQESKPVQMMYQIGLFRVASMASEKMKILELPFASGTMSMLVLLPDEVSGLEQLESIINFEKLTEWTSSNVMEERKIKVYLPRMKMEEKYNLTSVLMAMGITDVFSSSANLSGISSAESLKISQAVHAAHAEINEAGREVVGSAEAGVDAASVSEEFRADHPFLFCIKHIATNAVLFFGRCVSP

B1: OVA: ovalbumin, prototype vaccine immunogen given without adjuvant (protein, UniProt P01012 2-386, looked up)
Ovalbumin: GSIGAASMEFCFDVFKELKVHHANENIFYCPIAIMSALAMVYLGAKDSTRTQINKVVRFDKLPGFGDSIEAQCGTSVNVHSSLRDILNQITKPNDVYSFSLASRLYAEERYPILPEYLQCVKELYRGGLEPINFQTAADQARELINSWVESQTNGIIRNVLQPSSVDSQTAMVLVNAIVFKGLWEKAFKDEDTQAMPFRVTEQESKPVQMMYQIGLFRVASMASEKMKILELPFASGTMSMLVLLPDEVSGLEQLESIINFEKLTEWTSSNVMEERKIKVYLPRMKMEEKYNLTSVLMAMGITDVFSSSANLSGISSAESLKISQAVHAAHAEINEAGREVVGSAEAGVDAASVSEEFRADHPFLFCIKHIATNAVLFFGRCVSP
serum antibody response to OVA (ovalbumin (OVA) [1]; nasal, 25 μg OVA +/- 1.25% CRL1005 in 20 μl, twice): failed to induce antibody responses | serum antibody response to OVA (ovalbumin (OVA) [1]; oral, 125 μg OVA +/- 1.25% CRL1005 in bicarbonate buffer, twice): failed to induce antibody responses | serum antibody response to OVA (ovalbumin (OVA) [1]; s.c., 25 μg OVA +/- 1.25% CRL1005, twice, 14 days after second immunization): effective | OVA-specific antibody responses (ovalbumin (OVA) [2]): not induced | OVA-specific CTL activity (EG-7.OVA cells): not detected | cytokine responses [3]: did not induce measurable cytokine responses
